Sequences and labels used below:
B1: anti-mCS1 sdAb1, untagged (VHH)
VHH: QVQLQESGGGLVQPGGSLRLSCAASGFTFSSTAMSWARQAPGKGLEWVSSIYSDGSTSYADSMKGRSTISRDNAKNTVYLQMNSLKPEDTAVYYCAIGDTGWGRVGQGTQVTVSS
B2: sdAb3 (VHH)
VHH: QVQLQESGGGLVQPGGSLRLSCAASGSIFSIYAMDWYRQAPGKQRELVARITSDGSTNYADSVKGRFTISRDNAKNAVYLQMNSLKPEDTAVYYCVAEQSLGEHTLRDWGQGTQVTVSS
B3: sdAb4 (VHH)
VHH: B2 VHH with L11F, I31V, D35G, R50A, S53R, D54G, T57A
B4: sdAb9 (VHH)
VHH: QVQLQESGGGLVQPGGSLRLSCAASGSIFSILSMGWYRQAPGKQRELVASITNGGSTNYADSVKGRFTIFRDNAKNTVDLQMNSLKPEDTAVYYCNARPPRADLWGQGTQVTVSS
B5: sdAb2 (VHH)
VHH: QVQLQESGGGLVQPGGSLKLSCAASGSIASIYAMGWYRQAPGKQRELVATISSDGSTNYADSVKGRFTISRNNTDNTVCLQMNSLKPEDTALYTCITEQFLGDHTLRDWGQGTQVTVSS
B6: sdAb5 (VHH)
VHH: QVQLQESGGGLVQPGGSLRLSCAVSRSIFSFYAMGWYRQAPGKERELVARIISGGSTNYADSVKGRFTIARDNAKNTVYLQMNSLKPEDTAVYYCVAEQFLNDFTLRDWGQGTQVTVSS
B7: sdAb10 (VHH)
VHH: QVQLQESGGGLVQPGGSLRLSCAASGSIFSIYAMGWYRQAPGKQRELVAGITSGGSTHYADSVKGRFTISRDNAKNSVYLQMNSLKPEDTAVYYCNSDLDPPSGTYYPALWSWGQGTQVTVSS
B8: sdAb6 (VHH)
VHH: QVQLQESGGGLVQPGGSLRLSCAASGSIFSILAMGWYRQAPGKQRELVASVTNGGSTNYADSVKGRFTISRDNAKNTVYLQMNSLKPEDTAVYYCNVRPYSDYDSWGHGTQVTVSS
B9: sdAb7 (VHH)
VHH: B8 VHH with H108Q
B10: sdAb8 (VHH)
VHH: B8 VHH with S62F, A74V, S105Y, H108Q

Changes are numbered by the printed parent chain.

The target in the first assay is T1, mCS1-His (Mus musculus, strain , UniProt Q8BHK6). In words: SPR.
T1 sequence (Q8BHK6 23-333): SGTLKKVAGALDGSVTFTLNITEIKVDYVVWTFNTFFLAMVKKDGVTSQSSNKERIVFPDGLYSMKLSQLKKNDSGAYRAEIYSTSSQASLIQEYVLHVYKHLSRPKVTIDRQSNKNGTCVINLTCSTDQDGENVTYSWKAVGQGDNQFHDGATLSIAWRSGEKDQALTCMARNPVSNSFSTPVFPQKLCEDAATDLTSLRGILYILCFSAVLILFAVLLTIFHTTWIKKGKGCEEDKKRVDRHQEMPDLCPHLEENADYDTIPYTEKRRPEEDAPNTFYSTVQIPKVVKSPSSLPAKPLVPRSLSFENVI
Regarding B1, the Kd (commonly the constant that tells how readily two partners part at equilibrium) was 25 nM.

A further assay concerns the target T1, mCS1-His.
Assay: not given
With B2, the binding result is listed as “binds”. Turning to B3, the binding result is on record as “binds”. Regarding B4, the binding result is listed as “binds”. Same read-out and setting: the result for B5 reads “binds”; that for B6, “binds”; that for B7, “binds”. For B8, the binding result was “binds”. Regarding B9, the binding result is “binds”. Consider B10, for which the binding result was “binds”.

The record behind these values is PMC8583167 (Oncoimmunology, 2021).
